Measured values published in patent publication US20160032017A1 (ACADEMIA SINICA, published 2016).

How the values were obtained:
[1] = target: T1, synthetic peptide P(29→46), AAGGSVPHPRCHCGAGRA (human); assay: ELISA on synthetic CεmX peptides
T1 construct: Residues are counted on the CεmX domain
T1 peptide: AAGGSVPHPRCHCGAGRA

[2] = target: T2, synthetic peptide P(33→46), SVPHPRCHCGAGRA (human); assay: ELISA on synthetic CεmX peptides
T2 construct: Residues are counted on the CεmX domain
T2 peptide: SVPHPRCHCGAGRA

[3] = target: T3, synthetic peptide P(27→40) (human); assay: ELISA on synthetic CεmX peptides
T3 construct: Residues are counted on the CεmX domain; also called Peptide M1′-8
T3 peptide: PRAAGGSVPHPRCH

[4] = target: T4, synthetic 22 amino acid peptide P(25→46), GLPRAAGGSVPHPRCHCGAGRA (human); assay: ELISA, plate coated with P(25→46)
T4 construct: Residues 25-46 are counted on the CεmX domain; The peptide was coated on the ELISA plates without a carrier; the OVA conjugate was used only for immunization; also called target antigen peptide
T4 peptide: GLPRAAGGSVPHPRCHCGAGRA
Experimental: To screen hybridomas for antibody secretion and to map the epitopes of secreted antibodies, the wells of microtiter plates were coated by incubating them overnight at 4° C. with 10 μg/mL of P(25→46) in 0.1 M carbonate buffer, pH 9.6. The wells were first blocked for 1 hour with 1% bovine serum albumin (BSA) in phosphate buffered saline (PBS), pH7.3, and then incubated for 1 hour at 37° C. at various dilutions with antisera or control antibodies. The wells were then washed and the ligand-bound antibodies detected by horse radish peroxidase (HRP)-conjugated goat anti-mouse IgG, Fcγ fragment specific (Jackson ImmunoResearch), or anti-human IgG, Fcγ fragment specific (Jackson ImmunoResearch) at a dilution of 1:10,000. To detect the ligand-bound antibodies, the wells were incubated for 1 hour at 37° C., followed by incubation with TMB (3,3′,5,5′-tetramethylbenzidine) substrate (Clinical Scientific Products).
One of the monoclonal antibodies specific for an epitope within the P(25→46), herein designated mAb 23B11, was subjected to epitope mapping studies. Several peptides representing parts of the consecutive P(25→46) were synthesized, including P(29→46) (SEQ ID NO:1); P(31→46) (SEQ ID NO:3), P(33→46) (SEQ ID NO:4), P(27→40) (SEQ ID NO:5), and […] (SEQ ID NO:6), as shown in FIG. 1A. […] The reactivity of mAb 23B11 with the synthesized peptides were analyzed by ELISA. […]

Measured: binding result

B1: monoclonal antibody mAb 23B11 (antibody, V domains shown)
VH: EVQLQQSGAELMKPGASVKISCKASGYTFSSYWIEWVYQRPGHGLEWIGEILPGSGSSNYNEKFEGKATFTADTSSNTAYMHLSSLTSEDSAVYYCARWDYYGGRGFDYWGQGTTLTAAA
VL: DIVMTQAAPSVPVTPGESVSISCRSSKSLLHSNGNIYLHWFLQRPGQSPQLLIYRMSNVASGVPDRFSGSGSGTVFTLRISRVEAEDVGVYYCMQNLEYPLTFGAGTKLELK
notes: Murine hybridoma antibody from BALB/c mice, detected with anti-mouse IgG
binds: all assays above
